Data set [1] has as its system rabbit vWF domain A1 binding to lyophilized platelets. Nature of the data set: Rabbit von Willebrand Factor domain A1 platelet binding assay (FACS). In kind it is cell-based. Summed up: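 Aptamers (0.1–1000 nM) preincubated with 4 nM His-tagged rabbit vWF A1 in PBS/0.5% BSA, then lyophilized human platelets plus botrocetin added, 15 min at 37 °C. Bound A1 detected by anti-His-biotin and PE secondary via flow cytometry (median fluorescence, background-subtracted); IC50 fitted from percent inhibition.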

In data set [2] the test system is full length human vWF binding to lyophilized platelets. Nature of the data set: Full length human von Willebrand Factor platelet binding assay (FACS). In kind it is cell-based. Conditions: for Inhibition of full length hVWF binding in FACS assay, IC50 range: both bounds in nM. Summed up: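 Aptamer titrations (0.1–1000 nM) pre-incubated with 5 nM full-length human vWF, then added to lyophilized platelets plus botrocetin for 15 min at 37 °C in PBS/0.5% BSA. Bound vWF detected by anti-vWF then FITC secondary antibody via flow cytometry MFI; % inhibition versus no-aptamer binding fitted for IC50.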
On the technique in general: A flow cytometer gives signals particle by particle.

Another data set has as its system full length human vWF. Nature of the data set: 3-point dot blot screen, full length human vWF. Conditions: 20 nM full length human vWF, ratio of fraction of aptamer bound with target protein to fraction bound without protein. In kind it is binding. An outline of the steps:
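Unique aptamer clones tested twice by nitrocellulose dot blot with no protein, 20 nM full-length human vWF or 20 nM rabbit vWF A1 domain. Value is fraction of aptamer bound with target divided by fraction bound without protein.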

Where [3] appears, read: read-out: FACS IC50 vs rabbit A1 domain.
Where [4] appears, read: read-out: FACS IC50 vs human full length vWF.
The mark [5] stands for this setting: 4 nM rabbit A1 vWF, lyophilized platelets, botrocetin, both bounds in nM.
Setting [6] is: 5 nM full length human vWF, lyophilized platelets, botrocetin.
Where [7] appears, read: 4 nM rabbit A1 vWF, lyophilized platelets, botrocetin, read-out: Inhibition of rabbit VWF A1 domain binding in FACS assay, Average IC50.
[8] abbreviates: 5 nM full length human vWF, lyophilized platelets, botrocetin, read-out: Inhibition of full length hVWF binding in FACS assay, Average IC50.
Where [9] appears, read: 5 nM full length human vWF, lyophilized platelets, botrocetin, units in the cell: lower bound pM, upper bound nM, read-out: Inhibition of full length hVWF binding in FACS assay, IC50 range.
[10] abbreviates: 4 nM rabbit A1 vWF, lyophilized platelets, botrocetin, both bounds in nM, read-out: Inhibition of rabbit VWF A1 domain binding in FACS assay, IC50 range.

Positions count from the first letter of the chain named. Like-named read-outs stand apart in the source and are kept apart here. Oligonucleotides are written 5' to 3', each unit as a sugar letter and its base; * is a phosphorothioate linkage, no mark a phosphodiester; rarer units and linkages stand in square brackets, end groups in braces. Plain capitals give the bases only. [invdT] = inverted (3'-3') thymidine; d = 2'-deoxy (DNA); m = 2'-O-methyl; r = 2'-OH (RNA); f = 2'-fluoro

rabbit vWF domain A1 binding to lyophilized platelets, sequence (as listed by the source): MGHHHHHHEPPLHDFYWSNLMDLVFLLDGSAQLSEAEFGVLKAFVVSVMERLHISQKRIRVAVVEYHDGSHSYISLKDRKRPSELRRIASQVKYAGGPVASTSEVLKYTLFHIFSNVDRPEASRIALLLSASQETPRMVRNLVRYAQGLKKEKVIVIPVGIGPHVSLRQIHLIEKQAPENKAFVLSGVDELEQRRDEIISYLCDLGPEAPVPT

The term IC50 denotes the midpoint of a concentration-inhibition curve. In the case of “dGdGdCdGTdGdCdAdGTdGdCdCTTdCdGdGdCdCdGTdGdCdGdGTdGdCdCTdCdCdGTdCdAdCdGdCdC-3T (DNA GGCGTGCAGTGCCTTCGGCCGTGCGGTGCCTCCGTCACGCC; DNA, [invdT] at 3' end, backbone and methylation of C not given here) [ARC1172, ARC1115 with 3'-inverted dT]”, the IC50 in data set [1] (setting [3]) and in data set [2] (setting [4]) was 2000 pM in each case.
Turning to “mGmCmGmUdGdCdAmGmUmGmCmCmUmUmCmGmGmCdCmG-s-TmGdCdGdGTmGmCdCmUdCdCmGmUdCmAmCmGmC-3T (GCGUGCAGUGCCUUCGGCCGTGCGGTGCCUCCGUCACGC; sugars from the 5' end mmmmdddmmmmmmmmmmmdmdmddddmmdmddmmdmmmm, [invdT] at 3' end, backbone not given here) [ARC1368]”, the values for the 50% inhibitory concentration (IC50) in data set [1] (setting [3]) and in data set [2] (setting [4]) were 4000 pM and 2000 pM, respectively.

B1: AMX205.H10: rRdY aptamer clone (nucleic acid)
chain: rGrGrArGdCrGdCrAdCdTdCrArGdCdCrAdCdTrGdTdTrGdCdCrGrAdCrGrGdTrGrAdTrGdTrAdTdTrArAdCrGdCrGrGrGdCrArAdCrGdTdTrGrGdTrGdTdTdTdCrGrAdCdCdTdCdTdCdTrGdCdTrArGdC
As for B1, the “Inhibition of rabbit VWF A1 domain binding in FACS assay, IC50 range” value in data set [1] (setting [5]) is given as “no activity”. Besides, the “Inhibition of full length hVWF binding in FACS assay, IC50 range” value in data set [2] (setting [6]) was “no activity”.

B2: AMX201.C8: rRfY aptamer clone (nucleic acid)
chain: rGrGrArGfCrGfCrAfCfUfCrArGfCfCrAfCfCfCfUfCrGfCrArArGfCrAfUfUfUfUrArArGrArAfUrGrAfCfUfUrGfUrGfCfCrGfCfUrGrGfCfUrGfUfUfUfUfCrGrAfCfCfUfCfUfCfUrGfCfUrArGfC
Take B2: the IC50 in data set [1] (setting [7]) was 682 pM; in data set [2] (setting [8]), 528 pM; in data set [2] (setting [9]), 24 to 1800 pM.

B3: AMX206.D8: rRdY aptamer clone (nucleic acid)
chain: rGrGrArGdCrGdCrAdCdTdCrArGdCdCrAdCrGrAdCrGrGdTrGrAdTrGrGrAdTdTrArGdCrGdCrGrGdTrGrGrAdTdCdTdTrArAdCrGdTrGdCrGrArGdTdTdTdCrGrAdCdCdTdCdTdCdTrGdCdTrArGdC
In the case of B3, the “Inhibition of rabbit VWF A1 domain binding in FACS assay, IC50 range” value in data set [1] (setting [5]) is listed as “no activity”. Besides, the “Inhibition of full length hVWF binding in FACS assay, IC50 range” value in data set [2] (setting [6]) is reported as “no activity”.

B4: AMX237.G6: DNA SELEX 2 aptamer clone (nucleic acid)
DNA: CTACCTACGATCTGACTAGCGTGCAGTGCCTATTCCAGGCCGTGCGGTGCCTCCGTCACGCTTACTCTCATGTAGTTCC
modifications: DNA, backbone and methylation of C not given here
notes: DNA SELEX 2 aptamer clone
B4: the “Screen- Human/No Protein” value with full length human vWF is given as 3.80. Further, the concentration for half-maximal inhibition (IC50) in data set [2] (setting [8]) was found to be 1900 pM.

B5: AMX203.G9: rRdY aptamer clone (nucleic acid)
chain: rGrGrArGdCrGdCrAdCdTdCrArGdCdCrAdCrGrGrGrGdTrGrGrGdTrArGrAdCrGrGdCrGrGrGdTrAdTrGdTrGrGdCdTrGrGdTrGdTdCrGrArArGrGrGdTdTdTdCrGrAdCdCdTdCdTdCdTrGdCdTrArGdC
In the case of B5, the 50% inhibitory concentration (IC50) in data set [1] (setting [7]) was 592 pM; in data set [1] (4 nM rabbit A1 vWF, lyophilized platelets, botrocetin, units in the cell: lower bound pM, upper bound nM, read-out: Inhibition of rabbit VWF A1 domain binding in FACS assay, IC50 range) it was 152 to 1600 pM; in data set [2] (setting [8]), 4700 pM.

B6: AMX237.A2: DNA SELEX 2 aptamer clone (nucleic acid)
chain: CTACCTACGATCTGACTAGCTCCAGTGTTTCATCCAATAACCGTGCGGTGCCTCCGTGAGCTTACTCTCATGTAGTTCC
modifications: DNA, backbone and methylation of C not given here
notes: DNA SELEX 2 aptamer clone
Turning to B6, the “Screen- Human/No Protein” value in the data set on full length human vWF came out at 2.60. Further, the IC50 in data set [1] (setting [10]) was 7000 pM; in data set [2] (setting [8]), 3500 pM; in data set [2] (setting [9]) it was 815 to 7300 pM.

B7: AMX237.B11: DNA SELEX 2 aptamer clone (nucleic acid)
DNA: B6 chain with C31T, C35T
modifications: DNA, backbone and methylation of C not given here
notes: DNA SELEX 2 aptamer clone
Consider B7, for which the “Screen- Human/No Protein” value in the data set with full length human vWF is recorded as 2.87. For the same molecule, the IC50 in data set [1] (setting [10]) was 5700 pM; in data set [2] (setting [8]), 2500 pM; in data set [2] (setting [9]) it was 151 to 4800 pM.

B8: AMX238.G5: DNA SELEX 2 aptamer clone (nucleic acid)
DNA: B6 chain with C31T, C34T
modifications: DNA, backbone and methylation of C not given here
notes: DNA SELEX 2 aptamer clone
Regarding B8, the “Screen- Human/No Protein” value in the data set on full length human vWF amounted to 3.06. For the same molecule, the IC50 in data set [1] (setting [10]) was 5500 pM; in data set [2] (setting [8]), 1100 pM; in data set [2] (setting [9]) it was 273 to 2600 pM.

B9: AMX238.D12: DNA SELEX 2 aptamer clone (nucleic acid)
DNA: B6 chain with C34T
modifications: DNA, backbone and methylation of C not given here
notes: DNA SELEX 2 aptamer clone
With B9, in the data set on full length human vWF, the “Screen- Human/No Protein” value stood at 2.40. Besides, the IC50 in data set [1] (setting [10]) was 7200 pM; in data set [2] (setting [8]) it was 2000 pM; in data set [2] (setting [9]), 684 to 3400 pM.

B10: AMX237.A11: DNA SELEX 2 aptamer clone (nucleic acid)
chain: B6 chain with C31T
modifications: DNA, backbone and methylation of C not given here
notes: DNA SELEX 2 aptamer clone
Turning to B10, in the data set with full length human vWF, the “Screen- Human/No Protein” value was 2.66. Moreover, the IC50 was 4700 pM in data set [1] (setting [10]), 2200 pM in data set [2] (setting [8]) and 466 to 5600 pM in data set [2] (setting [9]).

B11: AMX205.F7: rRdY aptamer clone (nucleic acid)
chain: rGrGrArGdCrGdCrAdCdTdCrArGdCdCrAdCrAdCrGrAdCrAdTdTrGrGdCrGrGrGdTdTrGdTrArAdTdTrAdCdCrAdCrGdCrAdTrGrGdCdTrGdTdTdTrGdTdTdTdCrGrAdCdCdTdCdTdCdTrGdCdTrArGdC
For B11, the values for the half-maximal inhibitory concentration (IC50) in data set [1] (setting [7]), in data set [2] (setting [8]) and in data set [2] (setting [9]) were 4700 pM, 818 pM and 321 to 1600 pM, respectively.

Values taken from patent US7998940B2, “Aptamers to von Willebrand factor and their use as thrombotic disease therapeutics” (Archemix Corp., priority 2004, dated 2011).
